These results are taken from paper PMC5993331.

Experiment [1] has as its target factor H (FH) from human, purified (human) (UniProt P08603). In words: SPR; Biacore 3000; ten micrograms of FH from human, mouse or horse conjugated to a CM5 chip; CspA proteins injected at 10 μL/min, 25°C; 1:1 Langmuir model. Background: SPR reads the build-up and loss of mass on a sensor chip optically.
The target of experiment [2] is factor H (FH) from mouse, purified (mouse (Mus musculus)) (UniProt P06909). The description is as above.
Experiment [3] has as its target factor H (FH) from horse (horse). Described as above.
Experiment [4] addresses factor H (FH) from human, purified (human) (UniProt P08603). In words: ELISA; one microgram of FH coated on microtiter wells; 0.03125 to 2 μM histidine-tagged CspA proteins or DbpA added; detected by mouse anti-histidine tag; KD from a one-site fit of OD405. On the technique in general: ELISA stands for enzyme-linked immunosorbent assay.
Experiment [5] deals with factor H (FH) from mouse, purified (mouse (Mus musculus)) (UniProt P06909). The description is as above.
The target of experiment [6] is factor H (FH) from Coturnix quail (Coturnix coturnix quail). The description is as above.
For experiment [7], the target named is factor H (FH) from horse (horse). The description is as above.
The target of experiment [8] is human plasminogen (human). In words: SPR; Biacore 3000; ten micrograms of human C7, C9 or plasminogen conjugated on a CM5 chip (2823, 2034 and 2106 RU); 0.0625 to 1 uM histidine tagged CspA protein flowed over at 10 uL/min, 25°C; 1:1 Langmuir model.
The target of experiment [9] is human complement C7 (human) (UniProt P10643). Described as above.
For experiment [10], the target named is human complement C9 (human) (UniProt P02748). The description is as above.
human complement C9 (human), sequence (P02748 22-559): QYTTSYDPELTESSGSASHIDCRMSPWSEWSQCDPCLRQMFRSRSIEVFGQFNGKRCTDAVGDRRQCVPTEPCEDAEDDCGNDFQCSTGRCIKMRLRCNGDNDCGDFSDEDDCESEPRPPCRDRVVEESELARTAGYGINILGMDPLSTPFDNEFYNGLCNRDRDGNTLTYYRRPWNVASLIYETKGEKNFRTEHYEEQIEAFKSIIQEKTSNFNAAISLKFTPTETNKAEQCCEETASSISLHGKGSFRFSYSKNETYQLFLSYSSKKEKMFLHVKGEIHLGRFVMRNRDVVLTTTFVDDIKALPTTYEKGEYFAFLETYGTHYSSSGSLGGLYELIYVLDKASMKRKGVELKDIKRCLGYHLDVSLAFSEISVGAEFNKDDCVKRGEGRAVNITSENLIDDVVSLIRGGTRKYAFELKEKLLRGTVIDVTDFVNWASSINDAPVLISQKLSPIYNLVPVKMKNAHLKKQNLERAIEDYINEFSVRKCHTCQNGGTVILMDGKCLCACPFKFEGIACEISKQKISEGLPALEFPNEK

factor H (FH) from mouse, purified (mouse (Mus musculus)), sequence (P06909 19-1234): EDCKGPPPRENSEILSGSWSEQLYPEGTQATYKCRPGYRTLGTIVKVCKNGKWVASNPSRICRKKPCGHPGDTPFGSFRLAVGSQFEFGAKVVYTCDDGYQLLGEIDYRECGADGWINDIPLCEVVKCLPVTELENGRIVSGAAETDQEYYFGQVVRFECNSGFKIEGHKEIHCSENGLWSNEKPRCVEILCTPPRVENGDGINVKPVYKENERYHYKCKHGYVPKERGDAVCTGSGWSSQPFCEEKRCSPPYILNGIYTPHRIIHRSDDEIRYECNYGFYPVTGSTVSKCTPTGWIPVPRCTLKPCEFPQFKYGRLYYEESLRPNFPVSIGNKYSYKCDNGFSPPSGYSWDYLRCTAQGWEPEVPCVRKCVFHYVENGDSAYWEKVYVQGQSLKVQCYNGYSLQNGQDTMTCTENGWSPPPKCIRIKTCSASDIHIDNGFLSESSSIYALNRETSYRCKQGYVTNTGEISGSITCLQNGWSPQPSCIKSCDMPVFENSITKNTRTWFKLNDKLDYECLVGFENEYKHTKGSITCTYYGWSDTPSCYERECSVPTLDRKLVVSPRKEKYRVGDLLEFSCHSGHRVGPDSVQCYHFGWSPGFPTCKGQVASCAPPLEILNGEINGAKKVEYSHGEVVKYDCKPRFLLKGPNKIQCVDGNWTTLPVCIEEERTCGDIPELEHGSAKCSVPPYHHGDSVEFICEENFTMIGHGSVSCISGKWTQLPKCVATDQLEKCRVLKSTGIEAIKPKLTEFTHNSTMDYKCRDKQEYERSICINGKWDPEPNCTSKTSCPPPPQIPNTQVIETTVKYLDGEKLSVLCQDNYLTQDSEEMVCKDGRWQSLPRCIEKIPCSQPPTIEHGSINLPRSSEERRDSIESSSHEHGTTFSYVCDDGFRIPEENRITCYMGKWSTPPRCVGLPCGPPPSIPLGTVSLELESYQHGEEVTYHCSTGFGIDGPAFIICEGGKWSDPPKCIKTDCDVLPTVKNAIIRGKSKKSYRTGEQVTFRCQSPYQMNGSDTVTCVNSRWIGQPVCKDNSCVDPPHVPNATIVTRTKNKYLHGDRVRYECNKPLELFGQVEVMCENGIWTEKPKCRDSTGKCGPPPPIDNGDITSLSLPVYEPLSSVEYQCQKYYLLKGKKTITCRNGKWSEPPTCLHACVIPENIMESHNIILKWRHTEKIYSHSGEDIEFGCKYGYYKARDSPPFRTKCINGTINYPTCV
factor H (FH) from human, purified (human), sequence (P08603 19-1231): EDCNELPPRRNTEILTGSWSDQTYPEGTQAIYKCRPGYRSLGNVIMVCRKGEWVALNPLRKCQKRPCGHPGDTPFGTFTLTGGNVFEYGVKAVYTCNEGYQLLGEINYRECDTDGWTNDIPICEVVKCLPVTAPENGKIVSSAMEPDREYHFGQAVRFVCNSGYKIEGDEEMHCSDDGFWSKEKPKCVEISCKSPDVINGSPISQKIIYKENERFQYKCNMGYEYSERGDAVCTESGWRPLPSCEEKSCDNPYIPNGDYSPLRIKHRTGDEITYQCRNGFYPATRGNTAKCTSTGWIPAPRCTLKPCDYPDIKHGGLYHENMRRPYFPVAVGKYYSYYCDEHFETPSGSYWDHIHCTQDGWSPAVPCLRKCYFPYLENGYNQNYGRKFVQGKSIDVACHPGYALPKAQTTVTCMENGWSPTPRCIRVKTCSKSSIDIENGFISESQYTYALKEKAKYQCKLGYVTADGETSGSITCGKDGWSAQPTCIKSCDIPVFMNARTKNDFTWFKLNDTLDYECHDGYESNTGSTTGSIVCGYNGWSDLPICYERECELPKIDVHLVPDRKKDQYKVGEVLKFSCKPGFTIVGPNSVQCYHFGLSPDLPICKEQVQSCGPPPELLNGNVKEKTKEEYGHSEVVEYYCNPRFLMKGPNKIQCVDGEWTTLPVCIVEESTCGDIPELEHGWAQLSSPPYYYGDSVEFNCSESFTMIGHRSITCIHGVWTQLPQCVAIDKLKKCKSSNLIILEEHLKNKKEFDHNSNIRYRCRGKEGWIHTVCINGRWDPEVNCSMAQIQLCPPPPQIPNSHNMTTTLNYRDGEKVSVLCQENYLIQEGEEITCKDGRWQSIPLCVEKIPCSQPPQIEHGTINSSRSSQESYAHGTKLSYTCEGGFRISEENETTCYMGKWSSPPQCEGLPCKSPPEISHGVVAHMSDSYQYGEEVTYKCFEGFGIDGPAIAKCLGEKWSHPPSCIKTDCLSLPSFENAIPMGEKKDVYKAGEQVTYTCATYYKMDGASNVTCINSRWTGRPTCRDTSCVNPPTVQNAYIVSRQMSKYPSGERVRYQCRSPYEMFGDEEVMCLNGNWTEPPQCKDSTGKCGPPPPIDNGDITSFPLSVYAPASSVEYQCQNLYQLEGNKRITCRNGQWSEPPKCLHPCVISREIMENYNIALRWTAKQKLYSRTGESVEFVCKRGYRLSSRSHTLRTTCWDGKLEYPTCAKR
human complement C7 (human), sequence (P10643 23-843): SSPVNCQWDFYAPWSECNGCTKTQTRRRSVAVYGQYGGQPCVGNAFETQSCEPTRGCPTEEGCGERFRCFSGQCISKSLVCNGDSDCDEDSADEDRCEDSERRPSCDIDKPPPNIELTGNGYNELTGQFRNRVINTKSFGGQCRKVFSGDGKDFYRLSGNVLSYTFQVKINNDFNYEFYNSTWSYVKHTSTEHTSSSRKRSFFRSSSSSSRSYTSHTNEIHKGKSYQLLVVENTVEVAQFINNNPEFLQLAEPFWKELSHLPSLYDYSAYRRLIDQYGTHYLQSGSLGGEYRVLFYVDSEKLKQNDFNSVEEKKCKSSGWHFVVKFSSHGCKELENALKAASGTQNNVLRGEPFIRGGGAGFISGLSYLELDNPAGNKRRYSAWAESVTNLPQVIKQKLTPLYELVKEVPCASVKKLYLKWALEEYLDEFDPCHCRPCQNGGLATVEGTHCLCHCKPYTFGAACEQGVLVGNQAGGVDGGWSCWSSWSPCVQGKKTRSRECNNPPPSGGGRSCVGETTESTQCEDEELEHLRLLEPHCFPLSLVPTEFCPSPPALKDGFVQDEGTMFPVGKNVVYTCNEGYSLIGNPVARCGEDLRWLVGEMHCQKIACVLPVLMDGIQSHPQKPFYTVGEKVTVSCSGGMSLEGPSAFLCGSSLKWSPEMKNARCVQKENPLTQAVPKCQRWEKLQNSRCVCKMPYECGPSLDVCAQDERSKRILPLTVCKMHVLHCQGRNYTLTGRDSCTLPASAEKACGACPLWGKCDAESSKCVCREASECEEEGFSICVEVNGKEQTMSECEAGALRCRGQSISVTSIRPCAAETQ

Consider “recombinant histidine-tagged CspA of B. burgdorferi strain B31 (CspAB31) (natural protein)”, for which the equilibrium dissociation constant (Kd) (as a rule, a measure of binding affinity in units of concentration) in experiment [1] was determined as 200 nM; in experiment [2], 70 nM; in experiment [3] it was 550 nM; in experiment [4], 410 nM; in [5], 230 nM; in [6] it was 920 nM. The same substance returned a Kd in experiment [7] of 880 nM. The off-rate (koff) (commonly the rate constant with which the complex falls apart) in [1] was 0.017 s⁻¹; in experiment [2], 0.012 s⁻¹; in experiment [3], 0.014 s⁻¹. The kon (in general, the second-order rate constant of association) came to 114000 M⁻¹ s⁻¹ in [1], 188000 M⁻¹ s⁻¹ in experiment [2] and 30000 M⁻¹ s⁻¹ in [3].

In the case of “CspA (Bba68) from B. burgdorferi strain B31, histidine tagged, residue 26 to 252 (domain or fragment)”, the Kd in [8] was found to be 6350 nM; in experiment [9], 5260 nM; in [10], 5470 nM. Besides, the figures for the koff in experiment [8], in [9] and in experiment [10] were 0.26 s⁻¹, 0.45 s⁻¹ and 0.32 s⁻¹, respectively. Also, the results for the kon in experiment [8], in experiment [9] and in [10] were 43000 M⁻¹ s⁻¹, 94000 M⁻¹ s⁻¹ and 60000 M⁻¹ s⁻¹, respectively.

Turning to “recombinant histidine-tagged CspA of B. garinii strain ZQ1 (CspAZQ1) (natural protein)”, in experiment [6], the Kd stood at 360 nM.

“recombinant histidine-tagged CspA of B. afzelii strain PKo (CspAPKo) (from UniProt G0IU82 1-241) (natural protein)”: the dissociation constant (Kd) was 110 nM in experiment [1], 460 nM in [2], 160 nM in experiment [4] and 760 nM in experiment [5]. Further, the off-rate (koff) in experiment [1] came to 0.014 s⁻¹; in experiment [2], 0.048 s⁻¹. In addition, the kon is 152000 M⁻¹ s⁻¹ in experiment [1] and 115000 M⁻¹ s⁻¹ in experiment [2].

Consider “CspA (Bba68) from B. burgdorferi strain B31, histidine tagged, residue 26 to 252 with leucine-246 replaced by aspartate (domain or fragment)”, for which, in experiment [8], the Kd amounted to 6480 nM, the dissociation rate constant (koff) amounted to 0.29 s⁻¹ and the kon turned out to be 49000 M⁻¹ s⁻¹. In addition, in experiment [9], the equilibrium dissociation constant (Kd) amounted to 3500 nM, the koff was 0.38 s⁻¹ and the kon was 143000 M⁻¹ s⁻¹. Moreover, in [10], the equilibrium dissociation constant (Kd) worked out at 5400 nM, the off-rate (koff) was 0.36 s⁻¹ and the kon came out at 70000 M⁻¹ s⁻¹.
